Reference: article doi:10.1101/2020.09.13.295485

Biological target: His-GB1-tagged C-domain of CRT_(Del52) (human) (UniProt P27797)
Experiment: non-reducing SDS-PAGE with immunoblot

stoichiometry N: 2
Substance: His-GB1-tagged C-domain of CRT_(Del52) (from UniProt P27797 357-366) (domain or fragment)
